Data on 13 molecules can be found in article PMC6697466, “Interaction Between the a3 Region of Factor VIII and the TIL’E’ Domains of the von Willebrand Factor” (Biophysical Journal, 2019).

What is called Kd is the free concentration of one partner at which half of the binding sites on the other are occupied at equilibrium, for simple one-to-one binding. The term stoichiometry N denotes the number of molecules, sites or subunits per partner or assembly.

In experiment [1] the target is B-domain deleted FVIII (N8, turoctocog alfa) (UniProt P00451). The experiment in a line: ITC; MicroCal iTC200, 25 °C, 19 injections (first 0.4 uL, the rest 2 uL), 120 s between injections; who was in the syringe and the concentrations not given. For orientation: In ITC the heat of successive injections is recorded.
The subject of a further experiment is TIL’E’. Description: ITC of FVIII a3 peptides with TIL’E’. The class given is binding. As to conditions: 25°C, higher concentrations not feasible due to solubility. As to the method:
(§1) ITC experiments were performed on a MicroCal iTC200 (Malvern Instruments, Malvern, UK) at 25°C. All experiments were performed with a total of 19 injections (the first injection 0.4 μL, the rest 2 μL), with 120 s between each injection and an initial delay of 60 s. The reference power was set to 6 μcal/s, and the syringe was stirred at 750 or 1000 Rpm depending on the specifications of the syringe. The concentrations of proteins used are specified in the figure legends.

Another experiment concerns VWF TIL’E’ R816W. Description: NMR 15N-1H HSQC of VWF TIL’E’ R816W with FVIII a3sTyr1664-sTyr1680. As to conditions: five molar excess of peptide, 298 K. It counts as binding. As to the method:
All NMR spectra were recorded at 298 K on Bruker Avance III 700 MHz or Bruker Avance III HD 800 MHz spectrometers equipped with cryoprobes. NMR samples consisted of 10–300 μM isotope labeled TIL’E’ in 10 mM HEPES 300 mM NaCl 5 mM CaCl2 5% D2O pH 7.3.
Two-dimensional ^15N-^1H heteronuclear single quantum correlation (HSQC) spectra ([39]) were recorded with 3-9-19 Watergate, whereas two-dimensional methyl–transverse relaxation optimized spectroscopy (TROSY) experiments were recorded using the standard heteronuclear multiple quantum coherence pulse scheme ([40]).
Arg816 is located in the VWF TIL’ β3-β4 sheet ([31]), where the largest chemical shift changes were observed (Figs. 2 and 3). […] However, the most affected residues are located far from each other on the three-dimensional structure of VWF TIL’E’.

Experiment [2] relates to FVIII. Particulars: full-length VWF R816W; cited from earlier work. From the text:
Arg816 is located in the VWF TIL’ β3-β4 sheet ([31]), where the largest chemical shift changes were observed (Figs. 2 and 3).

The target of experiment [3] is T1, VWF TIL’E’ (construct 1, residues 764–865 of VWF) (UniProt P04275 764-865).
T1 construct: von Willebrand factor, TIL’E’ domains, residues 764-865; mature VWF starts at Ser764; enterokinase site GTDDDDK immediately before residue 764; every result printed for plain 'VWF TIL’E’' is written on this molecule; Uniformly 15N-labelled or ILV-13CH3/2H-labelled in the NMR experiments; also called wild-type VWF TIL’E’; source: thioredoxin and His6 tag cut off with enterokinase; not shown: …
Description: NMR titration; 15N-1H HSQC of 100 uM 15N-labelled VWF TIL’E’ free and with ~500 uM (five molar excess) unlabelled FVIII a3 peptide; 298 K; 10 mM HEPES 300 mM NaCl 5 mM CaCl2 5% D2O pH 7.3; saturation not reached, upper bound of Kd from chemical shift changes. As to conditions: both partners purified.

The subject of experiment [4] is FVIII. The experiment in a line: ITC of VWF TIL’E’ constructs and mutants with FVIII. The class given is binding. As to conditions: 25°C; for N: ITC stoichiometry. On the procedure:
as §1

[5] abbreviates: ITC, three independent ITC experiments.

“And” between values parts separate entries of the source, which are not always exact repeats. Equal values may be shown once. “Also recorded” adds a separate entry of the source. Square brackets hold non-standard residues; d marks the D form. Ends that are not written are not given here. sY = N[C@@H](Cc1ccc(OS(=O)(=O)O)cc1)C(=O)O

Consider “VWF TIL’E’-ALA-HPC4 (construct 3, residues 764–865 with C-terminal HPC4 tag), from E. coli (from UniProt P04275 764-865) (domain or fragment)”, for which the Kd in experiment [1] turned out to be 0.64 µM.

As for `CC[C@H](C)[C@H](NC(=O)[C@H](CC(=O)O)NC(=O)[C@H](Cc1ccccc1)NC(=O)[C@H](CC(=O)O)NC(=O)[C@H](CCC(=O)O)NC(=O)[C@H](CCCCN)NC(=O)[C@H](CCCCN)NC(=O)[C@H](CCSC)NC(=O)[C@H](CCC(=O)O)NC(=O)[C@@H](NC(=O)[C@H](CO)NC(=O)[C@@H](NC(=O)[C@@H](NC(=O)[C@H](CC(=O)O)NC(=O)[C@H](CC(=O)O)NC(=O)[C@H](Cc1ccc(OS(=O)(=O)O)cc1)NC(=O)[C@H](CC(=O)O)NC(=O)[C@@H](NC(=O)[C@H](CCC(=O)O)NC(=O)[C@H](CCC(=O)O)NC(=O)[C@H](CCC(N)=O)NC(=O)[C@H](CC(=O)O)NC(=O)[C@H](CO)NC(=O)[C@H](CCC(N)=O)NC(=O)[C@H](CC(C)C)NC(=O)[C@@H](NC(=O)[C@@H](NC(=O)[C@H](CCCNC(=N)N)NC(=O)[C@@H](NC(=O)[C@@H](NC(=O)[C@@H](N)CCC(=O)O)[C@@H](C)CC)[C@@H](C)O)[C@@H](C)O)[C@@H](C)O)[C@@H](C)CC)[C@@H](C)O)[C@@H](C)CC)C(C)C)C(=O)N[C@@H](Cc1ccc(OS(=O)(=O)O)cc1)C(=O)N[C@@H](CC(=O)O)C(=O)N[C@@H](CCC(=O)O)C(=O)N[C@@H](CC(=O)O)C(=O)N[C@@H](CCC(=O)O)C(=O)N[C@@H](CC(N)=O)C(=O)N[C@@H](CCC(N)=O)C(=O)N[C@@H](CO)C(=O)N1CCC[C@H]1C(=O)N[C@@H](CCCNC(=N)N)C(=O)O` [a3sTyr1664-sTyr1680], the “binding to TIL’E’ by ITC (in words)” value in the experiment on TIL’E’ is on record as “no high-affinity binding”. The “effect of R816W on affinity between FVIII a3 and VWF TIL’E’” value with VWF TIL’E’ R816W was “decreases the affinity”.

“VWF TIL’E’ (construct 1, residues 764–865 of VWF) (from UniProt P04275 764-865) (domain or fragment)”: in experiment [1], the Kd stood at 0.71 µM, the dH was -12 kcal/mol and the stoichiometry N stood at 1.

As for “VWF TIL’E’ R854Q (in the construct 1 background) (from UniProt P04275 764-865) (domain or fragment)”, in experiment [1], the Kd was determined as 7.2 µM, the dH was -7.5 kcal/mol and the stoichiometry N is 1.29.

With “VWF TIL’E’-ALA-HPC4 expressed in HKB11 cell line (construct 4) (domain or fragment)”, the Kd in experiment [1] stood at 0.75 µM.

In the case of “VWF R816W: full-length VWF R816W, severe VWD type 2N mutation”, the “binding to FVIII in ELISA” value in the experiment with FVIII [2] was “does not bind FVIII”.

“VWF TIL’E’ R854K (in the construct 1 background) (from UniProt P04275 764-865) (domain or fragment)”: the Kd in experiment [1] amounted to 25 µM.

On to EITRTTLQSDQEEID[sY]DDTISVEMKKEDFDI[sY]DEDENQSPR [FVIII a3 peptide a3_(sTyr1664-sTyr1680) (residues 1649–1689, Tyr1664 and Tyr1680 sulfated)], for which the Kd in experiment [3] was below 25000 µM.

B1: VWF GAMG-TIL’E’: four amino acids GAMG followed by residues 766–864 of VWF (protein)
chain: GAMGSCRPPMVKLVCPADNLRAEGLECTKTCQNYDLECMSMGCVSGCLCPPGMVRHENRCVALERCPCFHQGKEYAPGETVKIGCNTCVCQDRKWNCTDHVCD
With B1, the “binding to FVIII by ITC (in words)” value in the experiment with FVIII [4] (ITC) is on record as “substantially reduced binding; also recorded: the binding to FVIII had been abrogated; also recorded: unable to bind FVIII with micromolar affinity”.

B2: VWF TIL’E’: residues 764–865 of VWF; constructs 1 and 3 used interchangeably (protein)
chain: SLSCRPPMVKLVCPADNLRAEGLECTKTCQNYDLECMSMGCVSGCLCPPGMVRHENRCVALERCPCFHQGKEYAPGETVKIGCNTCVCQDRKWNCTDHVCDA
modifications: left off: thioredoxin, N-terminal, cleaved | His6, N-terminal, cleaved
notes: residues 764–865 of VWF; constructs 1 and 3 used interchangeably
Turning to B2, in the experiment on FVIII [4] (three independent ITC experiments), the N is listed as 1.0 ± 0.3. Also, in the experiment on FVIII [4] (ITC), the “binding to FVIII by ITC (in words)” value is listed as “micromolar interaction”. Moreover, on FVIII [4] (setting [5]), the Kd was 0.7 µM and 0.71 µM; the ΔH is -12.0 ± 1.3 kcal/mol.

B3: VWF R854Q TIL’E’: VWD type 2N mutation R854Q introduced into the construct 1 background (protein)
chain: SLSCRPPMVKLVCPADNLRAEGLECTKTCQNYDLECMSMGCVSGCLCPPGMVRHENRCVALERCPCFHQGKEYAPGETVKIGCNTCVCQDQKWNCTDHVCDA
modifications: left off: thioredoxin, N-terminal, cleaved | His6, N-terminal, cleaved
notes: VWD type 2N mutation R854Q introduced into the construct 1 background
For the molecule B3, the N with FVIII [4] (one run) turned out to be 1.29 ± 0.03. Besides, in the experiment on FVIII [4] (ITC), the “binding to FVIII by ITC (in words)” value is “Weak binding” and the “increase in Kd compared to the wild-type” value is “about an order of magnitude”. On FVIII [4] (ITC, one run), this molecule yielded a Kd of 7.2 ± 0.6 µM and a ΔH of -7.5 ± 0.2 kcal/mol.

B4: R854K: mutation R854K introduced into the construct 1 background (protein)
chain: SLSCRPPMVKLVCPADNLRAEGLECTKTCQNYDLECMSMGCVSGCLCPPGMVRHENRCVALERCPCFHQGKEYAPGETVKIGCNTCVCQDKKWNCTDHVCDA
modifications: left off: thioredoxin, N-terminal, cleaved | His6, N-terminal, cleaved
notes: mutation R854K introduced into the construct 1 background
Consider B4, for which, at FVIII [4] (ITC, n not given), binding was characterised by a dissociation constant (Kd) of 25 ± 20 µM.

B5: VWF R816W TIL’E’: VWD type 2N mutation R816W introduced into the construct 3 background (protein)
chain: SLSCRPPMVKLVCPADNLRAEGLECTKTCQNYDLECMSMGCVSGCLCPPGMVWHENRCVALERCPCFHQGKEYAPGETVKIGCNTCVCQDRKWNCTDHVCDA
modifications: left off: His6, N-terminal, cleaved | DsbC, N-terminal, cleaved | HPC4 (…: ALA linker and …), C-terminal, state not stated
notes: VWD type 2N mutation R816W introduced into the construct 3 background
As for B5, the “binding to FVIII by ITC (in words)” value with FVIII [4] (ITC, listed as VWF TIL’E R816W) was “no binding was observed”.
